Laboratory results taken from the supplement of paper PMC7125110.
± gives the standard error. Variants at the floor of the assay were thinned out.

B1: glmS ribozyme (parent)
chain: AUAAAAGCGCCAGAACUACAGAAAUGUAGUUGACGAGGAGGAGGUUUAUCGAAUUUUCGGCGGAUGCCUCCAAA

Columns and labels:
Details in all cases: with glucosamine-6-phosphate
[1] = variants of: B1; assay: self-cleavage kobs at 40 uM GlcN6P; higher = faster cleavage; RNA array
Method in brief: (§1)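 Weighted Michaelis–Menten fits across concentrations supplied kcat and KM, based on kobs from one- or two-exponential decay fits to normalised per-tile medians. The data came from barcoded ribozyme variants transcribed in situ by E. coli RNA polymerase on sequenced MiSeq chips and tracked at 37 °C by a hybridised Cy3 probe. Glucosamine-6-phosphate (40 μM to 10 mM) in HEPES/KCl/Mg(OAc)2 buffer was flowed in.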

[2] = variants of: B1; assay: self-cleavage kobs at 160 uM GlcN6P; higher = faster cleavage; RNA array
Method in brief: as §1

[3] = variants of: B1; assay: self-cleavage kobs at 640 uM GlcN6P; higher = faster cleavage; RNA array
Method in brief: as §1

[4] = variants of: B1; assay: self-cleavage kobs at 2500 uM GlcN6P; higher = faster cleavage; RNA array
Method in brief: as §1

[5] = variants of: B1; assay: self-cleavage kobs at 10000 uM GlcN6P; higher = faster cleavage; RNA array
Method in brief: as §1

Variant	self-cleavage kobs at 40 uM GlcN6P [1] [s⁻¹]	self-cleavage kobs at 160 uM GlcN6P [2] [s⁻¹]	self-cleavage kobs at 640 uM GlcN6P [3] [s⁻¹]	self-cleavage kobs at 2500 uM GlcN6P [4] [s⁻¹]	self-cleavage kobs at 10000 uM GlcN6P [5] [s⁻¹]
U31G C34U A42G	< 1e-05	< 1e-05	< 1e-05	< 1e-05	< 1e-05
G29A C71U	0.000141 ± 2e-05	0.000261 ± 8.2e-05	0.000549 ± 7.9e-05	0.00526 ± 0.0012	0.00436 ± 0.00077
C8G G43A G59A G60U	< 1e-05	–	–	–	–
G35U U54A	< 1e-05	< 1e-05	< 1e-05	< 1e-05	–
G32A G44C C71G	< 1e-05	–	–	–	< 1e-05
U45A U55A A64G	0.00112 ± 0.00022	–	0.00335 ± 0.0011	0.00972 ± 0.0028	0.0175 ± 0.0056
U30C U45A U47C C50U G60U C68U	< 1e-05	–	–	–	–
A33G A52C U55G	< 1e-05	–	–	–	–
U30G G38U A39U G66A	< 1e-05	–	–	–	< 1e-05
A6G U31A U46G C68G	< 1e-05	–	–	–	< 1e-05
G9A A14G	< 1e-05	< 1e-05	–	–	5.01e-05 ± 1.3e-05
C34U U56A	< 1e-05	< 1e-05	< 1e-05	< 1e-05	–
C8U A64C	< 1e-05	< 1e-05	< 1e-05	< 1e-05	–
C8A G40C	< 1e-05	< 1e-05	< 1e-05	< 1e-05	< 1e-05
C8U U30G	< 1e-05	< 1e-05	< 1e-05	–	< 1e-05
G35A A48U C71U	< 1e-05	–	–	–	–
A48C G51U C58G	< 1e-05	–	–	–	–
G9U A12U C70U	< 1e-05	–	–	–	–
A39C C50A	< 1e-05	< 1e-05	< 1e-05	–	< 1e-05
G32A C61G U69C	3.85e-05 ± 1.8e-05	–	–	7.4e-05 ± 2.3e-05	3.49e-05 ± 1.7e-05
C10G C11G C68U	< 1e-05	–	–	–	–
C8A U47G	< 1e-05	–	–	–	–
A36G U49G	< 1e-05	–	< 1e-05	–	–
A14G G41A	0.000282 ± 3.2e-05	0.000481 ± 7.9e-05	0.00125 ± 0.00022	0.00232 ± 0.00052	0.00645 ± 0.0016
C8A A15U A36G	< 1e-05	–	–	–	–

Variant	self-cleavage kobs at 40 uM GlcN6P [1] [s⁻¹]	self-cleavage kobs at 160 uM GlcN6P [2] [s⁻¹]	self-cleavage kobs at 640 uM GlcN6P [3] [s⁻¹]	self-cleavage kobs at 2500 uM GlcN6P [4] [s⁻¹]	self-cleavage kobs at 10000 uM GlcN6P [5] [s⁻¹]
A53G C67A C70U	0.000161 ± 2.5e-05	–	–	–	0.00035 ± 9e-05
G60A A64C	< 1e-05	–	< 1e-05	–	–
U46G A52G C61A	< 1e-05	–	–	–	–
G43U G44U	< 1e-05	< 1e-05	< 1e-05	< 1e-05	< 1e-05
C8A G9A A33U	< 1e-05	–	–	–	–
A15G U49G	4.65e-05 ± 2e-05	0.000118 ± 3.1e-05	0.000228 ± 4.3e-05	0.000499 ± 0.0001	0.00148 ± 0.00024
C8U A14G	< 1e-05	< 1e-05	–	< 1e-05	–
C34G C58G	< 1e-05	< 1e-05	< 1e-05	–	< 1e-05
A36U U45C C50U	< 1e-05	–	–	–	–
C16A C61U C70A	< 1e-05	–	–	–	–
C16G G40U U65C	< 1e-05	–	< 1e-05	–	–
A14G A53U C71G	0.000153 ± 2.4e-05	–	0.000741 ± 0.00014	0.00038 ± 0.0001	–
G29A G37C U69C	< 1e-05	–	–	–	< 1e-05
C10G U54G	< 1e-05	< 1e-05	< 1e-05	< 1e-05	–
C19A U31A	0.000156 ± 5.1e-05	–	–	0.00209 ± 0.001	0.00693 ± 0.0019
G9A C16G A52U	< 1e-05	–	–	–	< 1e-05
C8G G37C C67G	< 1e-05	–	–	< 1e-05	< 1e-05
C34A G38A	< 1e-05	< 1e-05	–	< 1e-05	< 1e-05
C11U G32U U49A C71A	< 1e-05	–	–	–	–
A48U G62U C68G	< 1e-05	–	–	–	–
G35A A53C	< 1e-05	< 1e-05	< 1e-05	–	< 1e-05
C10G C16U U49C	< 1e-05	–	< 1e-05	–	–
A6C A48U	< 1e-05	–	–	< 1e-05	–
G7U A42U G44C	< 1e-05	–	–	–	< 1e-05
U49A A52G	< 1e-05	–	–	–	–

Variant	self-cleavage kobs at 40 uM GlcN6P [1] [s⁻¹]	self-cleavage kobs at 160 uM GlcN6P [2] [s⁻¹]	self-cleavage kobs at 640 uM GlcN6P [3] [s⁻¹]	self-cleavage kobs at 2500 uM GlcN6P [4] [s⁻¹]	self-cleavage kobs at 10000 uM GlcN6P [5] [s⁻¹]
U65G C71A	4.51e-05 ± 1.7e-05	6.43e-05 ± 2e-05	0.000497 ± 5.7e-05	0.000938 ± 0.00015	0.00276 ± 0.00056
G35U G62A	< 1e-05	< 1e-05	< 1e-05	< 1e-05	< 1e-05
U46G U47G C67A	7.27e-05 ± 2e-05	–	–	–	0.0021 ± 0.00039
G37A U45C C58U C61G	< 1e-05	–	–	–	–
U56G G62U G63U	< 1e-05	–	–	–	< 1e-05
C8U A15G G35U C67U	< 1e-05	–	–	–	–
A6C C11A	< 1e-05	< 1e-05	–	< 1e-05	–
A48U G60A	< 1e-05	< 1e-05	< 1e-05	< 1e-05	< 1e-05
A33G U47A	< 1e-05	–	–	–	< 1e-05
G7A A12U	< 1e-05	< 1e-05	–	2.22e-05 ± 8.3e-06	7.91e-05 ± 2e-05
G13A G37C	< 1e-05	< 1e-05	< 1e-05	< 1e-05	< 1e-05
G41U A42G G44A A48G	< 1e-05	–	< 1e-05	–	–
A33G C71U	< 1e-05	–	–	–	< 1e-05
A42U G60C C67A	< 1e-05	–	–	–	< 1e-05
G7U G9A U57G C67A	< 1e-05	–	–	–	–
U31C G38C A39C	< 1e-05	–	–	< 1e-05	–
C34U G60U	< 1e-05	< 1e-05	< 1e-05	< 1e-05	< 1e-05
A39C U49A	< 1e-05	< 1e-05	–	–	< 1e-05
G13C U30G U54G G63U C67U	< 1e-05	–	–	–	< 1e-05
G44C C71A	< 1e-05	< 1e-05	< 1e-05	–	–
G32U A36C A53U U54A G63U	< 1e-05	–	–	–	< 1e-05
A33C G41C U57G	< 1e-05	–	–	< 1e-05	–
G9C G40A C50A	< 1e-05	–	–	–	< 1e-05
G9U C10G	< 1e-05	< 1e-05	< 1e-05	< 1e-05	< 1e-05
U31A G62C	< 1e-05	< 1e-05	–	< 1e-05	< 1e-05

Variant	self-cleavage kobs at 40 uM GlcN6P [1] [s⁻¹]	self-cleavage kobs at 160 uM GlcN6P [2] [s⁻¹]	self-cleavage kobs at 640 uM GlcN6P [3] [s⁻¹]	self-cleavage kobs at 2500 uM GlcN6P [4] [s⁻¹]	self-cleavage kobs at 10000 uM GlcN6P [5] [s⁻¹]
C10G U30C A33C U55A	< 1e-05	–	–	–	< 1e-05
A12G C34G G38C A39C A42U G60C C71U	< 1e-05	–	–	–	–
G13U A52U C70G	< 1e-05	–	–	–	–
G9C U65A	< 1e-05	–	–	< 1e-05	–
C61U G63A	< 1e-05	< 1e-05	< 1e-05	–	< 1e-05
A15G G29U U54C	2.83e-05 ± 1.3e-05	–	0.000321 ± 0.0001	0.000796 ± 0.00016	–
G51C C61A	< 1e-05	–	< 1e-05	< 1e-05	< 1e-05
G38U A42U U49A G60U	< 1e-05	–	–	–	< 1e-05
C16U G38C A48G C50U U55G	< 1e-05	–	–	–	< 1e-05
G13U U31C C50G G63U	< 1e-05	–	–	–	–
G44A A48G	< 1e-05	< 1e-05	< 1e-05	< 1e-05	< 1e-05
A42C U49A	< 1e-05	< 1e-05	< 1e-05	< 1e-05	–
G7U C10A A15U	< 1e-05	–	< 1e-05	< 1e-05	–
A12G A53U C58U	< 1e-05	–	–	–	–
C11G A15C	< 1e-05	< 1e-05	< 1e-05	< 1e-05	–
G59C U65G	< 1e-05	–	< 1e-05	–	< 1e-05
A42C G51U	< 1e-05	< 1e-05	< 1e-05	–	< 1e-05
A6G U31C G41U A52U	< 1e-05	–	–	–	< 1e-05
C16G C34A G38C U65C	< 1e-05	–	–	–	–
A14U G41C G43A G63U C67A C70A	< 1e-05	–	–	–	< 1e-05
A12C G13A U65C C68U	< 1e-05	–	–	–	–
G29C G62U	< 1e-05	< 1e-05	–	–	–
C50G C71A	0.00184 ± 0.00076	0.000128 ± 1.3e-05	0.000215 ± 2e-05	0.000153 ± 1.4e-05	–
